Test results as given in the supplement of paper PMC9170038.

Test system: MS2 coat protein
Experiment: apparent KD of MS2 coat protein; higher = weaker reporter binding
Details: Eterna round: R107
How it was run: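 Illumina sequencing clusters served as templates for on-chip transcription of the designed RNA switches. SNAP-549-labelled MS2 coat protein was then titrated in twofold steps from 0.7 or 1.5 nM to 3 µM, allowing 0.8–1.5 h per step at first and 10–20 min per step later. The buffer held 100 mM Tris-HCl pH 7.5, 80 mM KCl and 4 mM MgCl2, without or with constant ligand. Apparent KD is the median per design of normalised cluster binding-curve fits.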

[1] = input ligand: theophylline 20 uM
[2] = input ligand: theophylline 2 mM
[3] = input ligand: tryptophan 2.4 mM

| Sequence | apparent KD of MS2 coat protein (input ligand: arginine 13.2 mM) [nM] | apparent KD of MS2 coat protein (input ligand: none) [nM] | apparent KD of MS2 coat protein [1] [nM] | apparent KD of MS2 coat protein [2] [nM] | apparent KD of MS2 coat protein [3] [nM] |
| --- | --- | --- | --- | --- | --- |
| UCUAGUGCGGGAAGGAGCGCCAUACAUGAGGAUCACCCAUGUUGAGCAUGCUCGUGUACUAGGCAGGUAGGUCGCCCGCUCUACG [Radionle] | 28.8 | 27.2 | 30.9 | 23.5 | 23.3 |
| UCUGCCGCGGCUCCGAUCCUCCUGUAGUUCCGAGGACCGGUACGGCCGCCACUCGUAGCACAUGAGGAUCACCCAUGUCUUGCGG [Tiqurabira] | 12.1 |  | 17.5 | 13 |  |
| UCUUGGUCCGCAAGGACCGUGAGUUGCGAUACCAGCACGGUAACGUGCCCUUGGCAGCGCACAUGAGGAUCACCCAUGUGGUGUU [#1 Exclusion - Theophylline A Attempt #15 (HarryS)] | 71.6 |  | 520 |  | 210 |
| UCUUGGUCCGCAAGGACCUUGAGUUGCGAUACCAGCACGGUAACGUGCCCUUGGCAGCGCACAUGAGGAUCACCCAUGUGGUGUU [#1 Exclusion - Theophylline A Attempt #16 (HarryS)] | 82.3 |  | 348 |  | 170 |
| UCUUUCUUUGUAGAUACCAGCGUGUUAUCUUUCUUUUGACAUGAGGAUCACCCAUGUAUAUGCCCUUGGCAGCUACAUAUUCUUU [#01 Same State - Theophylline B] | 18.1 |  | 23.6 |  | 18.2 |
| UGACAGAUAACCGCUGGUGCUCUUGAGUUGCGAGGACCGGUACGGCCGCCACUCGACAACAUGAGGAUCACCCAUGUUGCGGGUC [Soleeror] | 38.3 | 146 | 89.5 | 146 | 85.1 |
| UGACAUUGCUCAGAUACCAGACAUGAGCAUCAGCCAUGUACCAAGAGUACAUGUUAAAGUGUCCCUUGGCAGCUGAGCAAUGUCU [Mod of Eli's TheoBX5 #AlternateMS2 v3] | 56.4 | 70.9 | 193 | 603 | 72 |
| UGACAUUGCUGCGAUACCAGACAUGAGGAUCACCCAUGUACCAAGGUAACCGAAAGGCAUGUCCCUUGGCAGCGCAGCAAUGUCU [MAT - Exclusion Theophlline B - Mod of Eli - D13] | 12.8 |  | 21 |  | 12.2 |
| UGAGAUCCUCAUGAUACCAGUGUACUACAUGAGGAUCACCCAUGUAGCAACAUCUGUAGACACCCUUGGCAGCAUGAGACCACGU [Theo B SS t5] | 17.5 |  | 35.2 |  | 15.6 |
| UGCGUACAUGAGGAUCACCCAUGUAUAGAUACCAGUCACCCAUGUGGCCCUUGGCAGCUAACAUGAGGAUCACUACAUGAGGAUC [Exclusion Theophylline A 3] | 24.3 |  | 72.2 |  | 32.7 |
| UGGAAAGCACAUGAGGAUCACCCAUGUGAUACCAGCUGAAACUAAGGCCCUUGGCAGCACAUGGUACCAACCCUUUGGUAGUCCA [Vearedqu] | 10.9 |  | 19.9 |  | 10.3 |
| UGGACGCAACGAGCACGAGGUCGGCAGCUACGAGGACCGGUACGGCCGCCACUCGAGUUACGACAUGAGGAUCACCCAUGUAAGG [theeternabot_exclusion_MS2_Trp_A_45] | 27.9 |  | 61.1 | 51.8 |  |
| UGGUACAUGAGGAUCACCCAUGUUCCAGAUACCAGACUCCCGGUGGUCCCUUGGCAGCUGGUGGUACAUGAGGAUCACCCAUGUG [Exclusion Theophylline A GF17] | 28.5 |  | 44.7 |  | 30.8 |
| UGUAAUGUGGGAAGGAGCGCAUACUUCACAUGAGGAUCACCCAUGUCAAGACGUGAGUCAGUGCAGGUAGGUCGCCUAGUUUAGA [Same State - Arginine B (Freestyle 18)] | 37.2 | 97 | 75.4 | 88.9 | 42 |
| UGUACAUGAGGAUCACCCAUGUUACGCGAUACCAGACAUGAGAGUGUCCCUUGGCAGCGUGGAGCUGAUACGGCGGGAAGCCGGA [#10 SameState-TheophyllineA] | 16.1 |  | 50.2 |  | 45.9 |
| UGUAUGGACUGAAGGAGCGACUCAAAAUAACAUGAGGAUCACCCAUGUAAGGCGAAAGCCGGUCAGGUAGGUCGCAGUCCAUACU [ArgBX 3] | 13.7 | 11.3 | 16.1 | 10.6 | 11.6 |
| UGUAUGGACUGAAGGAGCGCCUCAAAAUAACUUGAGGAACACCCAAGUAAGGCGAAAGCCGGGCAGGUAGGUCGCAGUCCAUACU [ArgBX 3] | 31 | 24.6 | 23 | 46.1 | 34.6 |
| UGUAUGGACUGAAGGAGCGGAAAAUAAAUCUGAGGAUCACCCAGGUAAUAGGCGAAAGCCAUCCAGGUAGGUCGCAGUCCAUACU | 56.9 | 86.7 | 101 | 133 | 105 |

| Sequence | apparent KD of MS2 coat protein (input ligand: arginine 13.2 mM) [nM] | apparent KD of MS2 coat protein (input ligand: none) [nM] | apparent KD of MS2 coat protein [1] [nM] | apparent KD of MS2 coat protein [2] [nM] | apparent KD of MS2 coat protein [3] [nM] |
| --- | --- | --- | --- | --- | --- |
| UGUAUGGACUGAAGGAGCGGGAAAAUAACUUGAGGAUCACCCAGGUAAAAGGCGAAAGCCACCCAGGUAGGUCGCAGUCCAUACU | 21.5 | 26.2 | 30.1 | 22.4 | 25.9 |
| UGUAUGGACUGAAGGAGCGGGUUGAUAACCUGAGGAUCAUCCAGGUAAAAGGCGAAAGCCGCCCAGGUAGGUCGCAGUCCAUACU | 174 | 158 | 227 | 280 | 237 |
| UGUAUGGACUGAAGGAGCGGGUUGAUAAUCUGAGGAUCACCCAGGUAAAAGGCGAAAGCCGCCCAGGUAGGUCGCAGUCCAUACU | 20.5 | 25.3 | 36.1 | 31.5 | 33.4 |
| UGUAUGUGAUCUGAUACCAGUCCAACUGGUAAACCAUGAGGAUCACCCAUGGAAAAUUGGGACCCUUGGCAGCAGAUCGCAUACU | 96.5 |  | 236 | 20.9 | 322 |
| UGUAUGUGAUUUGAUACCAGACCAACUGGUAAUACAUGAGGAUCACCCAUGUAGAUUUGGGUCCCUUGGCAGCAAAUCGCAUACU [SSTheo B #23] | 45.6 |  | 34.1 |  | 46.1 |
| UGUAUGUGAUUUGAUACCAGACCAGCUGGUGGUACCUGAGGAACACCCAGGUAGGUUUGGGUCCCUUGGCAGCAAAUCGCAUACU [SS Theo B #24 Ms7] | 36.2 |  | 34.4 | 21.4 | 33.3 |
| UGUCCUCAUGCGGCCGCCACUGUCGGCCGCCACUAAACCUGAGGAUCACCCGGGUAGGACCGGGACAGGACCGGGCAUGGGUGCU [#DoubleAptamer 4 #AlternativeMS2] | 47.4 | 315 | 486 | 686 | 111 |
| UGUCGGCGAAAGUUGGCGUGUCUUGCUGGUCGAGGACCGGUACGGCCGCCACUCGAUCCUUCGCACAUGAGGAUCACCCAUGUUG [SS Tryp A #24] | 25.8 |  | 49.1 | 34.8 |  |
| UGUGCAGGAUGUGUAAAAGGUCUUGGGCAUCGAGGACCGGUACGGCCGCCACUCGGCUGUACAUGAGGAUCACCCAUGUCAGGGU [#1 Same State - Tryptophan A Attempt #21 (HarryS)] | 30.5 | 220 | 554 | 694 | 737 |
| UGUGUCGUCUGAAGGAGCGGCUCUUGAUCCUCGUGGGACAUGAGGAUCACCCAUGUCUCGAGCCAGGUAGGUCGCAGGCGGCACA [#27 Exclusion - Arginine B] | 31.3 | 26 | 32.6 | 23.8 | 20.7 |
| UUAUAAGUACCGGUCCUCAGAUCCUCAUGACGAGGACCGGUACGGCCGCCACUCGAAACAUGAGGAUCACCCAUGUAAUAAUAAU [Brourdmod05] | 18.8 |  | 29.3 | 27.7 |  |
| UUAUAAGUACCGGUCCUCAGAUCCUCAUGACGAGGACCGGUACGGCCGCCACUCGAAACAUGAGGAUCACCCAUGUAAUAAUACC [Brourdmod12] | 36.6 |  | 71.5 | 54.2 |  |
| UUAUAUACUACGGCCGCCACUGAACAUGAGGAUCACCCAUGUAAUGUUCAGACGUCUUUAGACGACAGGACCGGGUAGAAUUAAA [Tryptophan B 1] | 79.5 |  | 114 | 122 |  |
| UUCAAAGGGAACGGUGCUGGUAGCAGAGAUACCAGAGUAAUGAUACUCCCUUGGCAGCUCAGUACAUGAGGAUCACCCAUGUAAU [Exclusion Theophylline A GF24] | 13.8 | 13.5 | 20.2 | 15.9 | 15.1 |
| UUCACAUGAUCUGAAUAUACAGAAAAGAAACGAGGACCGGUACGGCCGCCACUCGUGCCGGAAACAUGAGGAUCACCCAUGUGUU [AK1.3 Exclusion TrypA mod IceBolt] | 19.7 |  | 28.5 | 26.2 |  |
| UUCACAUGGUAUGAAUAUACAUAUAAGAAACGAGGACCGGUACGGCCGCCACUCGUGCCGGAAACAUGAGGAUCACCCAUGUGUU [AK1.1 Exclusion TrypA mod IceBolt] | 27 |  | 55.9 | 64.8 |  |
| UUCGUAUUGUCGGCCGCCACUGCAACAUGAGGAUCACCCAUGUAAAUUUGGGAGUAGUUAUAUUACAGGACCGGGACAAUAGUAA [JR_ExcTryptoB_Sub019] | 51.8 |  | 113 | 140 |  |
